Key:
Test in all cases: EMSA
[1] = biological target: T1, ComA (Bacillus subtilis (W168?)) (UniProt P14204); details: EMSA: 10 mM HEPES pH 7.6, 2 mM MgCl2, 0.1 mM EDTA, 200 mM KCl, 5 mM DTT, 10% glycerol, 10 ng DNA in 15 ul, 20 min, room temperature
T1 sequence: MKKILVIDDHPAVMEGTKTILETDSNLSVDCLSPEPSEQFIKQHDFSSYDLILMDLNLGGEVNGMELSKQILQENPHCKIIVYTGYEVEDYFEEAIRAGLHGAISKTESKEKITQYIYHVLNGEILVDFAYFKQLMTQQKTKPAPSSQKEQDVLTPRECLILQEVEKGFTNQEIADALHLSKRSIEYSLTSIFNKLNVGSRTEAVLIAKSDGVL

[2] = biological target: T2, ComA;RNA polymerase alpha subunit (Bacillus subtilis (W168?);Bacillus subtilis) (UniProt P14204+P20429); details: EMSA: 10 mM HEPES pH 7.6, 2 mM MgCl2, 0.1 mM EDTA, 200 mM KCl, 5 mM DTT, 10% glycerol; 10 ng DNA in 15 ul, 20 min, room temperature
T2 sequence 1: T1 sequence
T2 sequence 2: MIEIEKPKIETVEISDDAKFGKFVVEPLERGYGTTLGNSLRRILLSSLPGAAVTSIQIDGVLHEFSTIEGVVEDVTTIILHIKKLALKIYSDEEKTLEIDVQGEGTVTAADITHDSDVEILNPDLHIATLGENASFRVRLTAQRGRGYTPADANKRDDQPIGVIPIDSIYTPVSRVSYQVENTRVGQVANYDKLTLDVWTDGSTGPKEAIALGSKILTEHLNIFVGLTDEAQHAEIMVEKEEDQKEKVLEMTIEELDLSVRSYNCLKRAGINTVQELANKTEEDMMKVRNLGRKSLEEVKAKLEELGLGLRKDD

[3] = biological target: ComA;sigma factor sigmaA (Bacillus subtilis (W168?);Bacillus subtilis) (UniProt P14204+P06224); details: EMSA: 10 mM HEPES pH 7.6, 2 mM MgCl2, 0.1 mM EDTA, 200 mM KCl, 5 mM DTT, 10% glycerol; 10 ng DNA in 15 ul, 20 min, room temperature
ComA;sigma factor sigmaA (Bacillus subtilis (W168?);Bacillus subtilis), sequence (P06224 whole entry, one chain of several): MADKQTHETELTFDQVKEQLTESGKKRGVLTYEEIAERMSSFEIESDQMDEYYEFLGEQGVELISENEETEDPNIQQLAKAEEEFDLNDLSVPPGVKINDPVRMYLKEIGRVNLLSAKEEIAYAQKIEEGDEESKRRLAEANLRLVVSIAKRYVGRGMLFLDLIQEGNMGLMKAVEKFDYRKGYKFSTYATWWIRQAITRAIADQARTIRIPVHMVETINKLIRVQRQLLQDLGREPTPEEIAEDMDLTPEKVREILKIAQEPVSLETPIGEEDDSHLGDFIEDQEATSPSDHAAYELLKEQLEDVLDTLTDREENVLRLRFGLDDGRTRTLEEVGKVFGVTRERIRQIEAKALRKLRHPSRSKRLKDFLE

AAAACCAAAAGGCCAATGTCGGCCTTTTGGTTTTTTTGCGGTCTTTGCGGTGGGATTTTGCAGAATGCCGCAATAGGATAGCGGAACATTTTCGGTTCTGAATGTCCCTCAATTTGCTATTATATTTTTGTG (double strand) [Ppel]
binding [1]: binds

GTTACTGTCAAGTCGCAAAAGAATTGCTATGACCGAAAAAAAACCGCAAAGGAATAGATATAAGGTACCTTTTTGCAATTCATCTTTGTAAAATAAAGGTTATTCTGACATAATACAATTAATGTAAAAATTCGCACAATTTTATGTAAGGATGGGGGAATTTTC (double strand) [PrapI]
binding [1]: binds

NCrapI (no DR)
binding [1]: > 9.6 µM

NCyddk (no DR)
binding [1]: > 9.6 µM

PDR ex1 (RE3 T1C)
binding signal (fold reduced affinity) [1]: 2

PDR ex3 (RE3 G3A)
binding [1]: > 9.6 µM

PDR ex5 (RE3 G5A)
binding [1]: > 9.6 µM

PDR ex11 (RE4 G5A)
binding [1]: > 9.6 µM

PDR ex12 (RE4 G6A)
binding [1]: > 9.6 µM

PIR-PDR core module fragment
Kd ([1]; apparent Kd, Hill coefficient 1.4): 2.4 µM

TAGATTTCCTCCGACCTAATTTAATCCATTGTTTGTAAACATTTCATATCTAATTATATAACATAGACTCCTATTCTAACTACTTATTTTAAAGCAGTCTGGATTGTTTGGGTAATTCATAAAAAAATAAAAGAAAGAAGGAGGAATAGAGTTTTTCTTTTTTTTGTTTGCAATGTTACTGTCAAGTCGCAAAAGAATTGCTATGACCGAAAAAAAACCGCAAAGGAATAGATATAAGGTACCTTTTTGC (double strand) [Pyddk]
binding [1]: binds

TTAATCCCCCCTTTTGAATTACCCGAGATATGTCATATTTTATCATATTTACAAGAAAAAGAAGAACGCAAAATAACCGCAATTGTCGAATTTCGGCTAACCGCAACAAAAAAGCACG (double strand) [PrapA]
binding [2]: binds | binding [1]: binds | binding [3]: binds

Source: PMC4797271
